Measurements reported in publication PMC4448555.

Target: Bcl-xL∆L∆CT (C-terminal and loop-truncated Bcl-xL)
Assay: SAXS; purified OM-induced Bcl-xL dimer, 1 mg/ml and 3 mg/ml, 15 °C; mass from forward scattering against lysozyme

stoichiometry N: 2
Substance: Bcl-xL∆L∆CT (C-terminal and loop-truncated Bcl-xL) (domain or fragment)
